# Results as given in publication doi:10.1101/2025.01.13.632804.
# Legend:
# GST-FKBP12 (mouse) = GST-FKBP12 (mouse) (UniProt P26883); test: pull-down
# [1] = biological target: Porcine brain tubulin (growing microtubules) (porcine); test: TIRF microscopy of GFP-CRMP2A on growing microtubules in vitro
# Chain of UniProt P26883 (P26883 whole entry): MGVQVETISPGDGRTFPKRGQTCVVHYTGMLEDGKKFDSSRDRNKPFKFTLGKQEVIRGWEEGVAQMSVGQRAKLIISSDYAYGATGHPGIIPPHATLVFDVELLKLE
substance,measurement,setting,value
Cdk5-phosphorylated FLAG-CRMP2A (natural protein),"pull-down signal normalized to the input, relative to CRMP2A without Cdk5",GST-FKBP12 (mouse),0.39
"FLAG-CRMP2A S27A, S623A, expressed under high Cdk5 activity (natural protein)",pull-down signal relative to WT CRMP2A in the presence of Cdk5,GST-FKBP12 (mouse),2.59
"FLAG-CRMP2A S27A, expressed under high Cdk5 activity (natural protein)",pull-down signal relative to WT CRMP2A in the presence of Cdk5,GST-FKBP12 (mouse),2.57
"FLAG-CRMP2A S623A, expressed under high Cdk5 activity (natural protein)",pull-down signal relative to WT CRMP2A in the presence of Cdk5,GST-FKBP12 (mouse),1.75
FLAG-CRMP2AΔ604 (CRMP2A 1-604) (domain or fragment),"pull-down signal normalized to the input, relative to CRMP2A",GST-FKBP12 (mouse),2.82
FLAG-tagged GFP-CRMP2A (natural protein),length of the GFP-positive ends,[1],0.297 um
same,length of the GFP-positive ends (with FKBP12),[1],0.133 um
same,persistence of GFP signal,[1],33.1 s
same,persistence of GFP signal (with FKBP12),[1],18.7 s
